These results are taken from US20230257454A1 (STAIDSON BEIJING BIOPHARMACEUTICALS, published 2023).

The target of assay [1] is T1, human C5a (source not stated) (human, UniProt P01031 678-751).
T1 sequence: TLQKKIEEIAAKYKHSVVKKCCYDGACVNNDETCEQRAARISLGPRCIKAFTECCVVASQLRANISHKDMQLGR
The experiment in a line: cell-based or functional assay.

The target in assay [2] is T1, human C5a (source not stated). The experiment in a line: cell-based or functional assay. The source holds these as a separate data set.
Assay [3] concerns the target T2, human recombinant C5a (human, UniProt P01031 678-751).
T2 construct: Full-length human C5a; also called rC5a; human C5a
T2 sequence: T1 sequence
Put plainly: ELISA, plate coated with human rC5a, scFv titrated, OD410.
Protocol: Monoclonal scFv antibodies were selected and subjected to ligand binding assays. The binding assay was designed to identify scFv antibodies that bound human recombinant C5a or endogenous C5a. Briefly, a 96-well plate was coated with human rC5a or eC5a in PBS at 0.1 µg/well and left overnight at 4° C. Before loading the scFv antibodies, the plates were washed with TBST, blocked for 1-2 hours at 37° C. using 5% milk and washed again with TBST. Each scFv sample was first diluted to 10 µg/mL, and 150 µL was added to the first row of wells. The 10 µg/mL scFv samples were then serially diluted at a 1:3 ratio and added to the remaining wells. After incubating for 1 hour at 37° C., followed by washing with TBST 6 times, 100µl of the primary antibody and secondary antibody mixture (mouse anti-flag (1:2500) and anti-mouse FC-AP (1:2000)) was added to each well. After incubation for 1 hour under 37° C., the plate was washed 3 times using TBST. pNPP was then added at 50 µL/well and incubated for 10-20 minutes at 37° C. 50 µL 3 M NaOH was used to stop the reaction. The ELISA results (OD410) were then analyzed and the binding curves were generated by PRISM.

Assay [4] concerns the target T3, native full-length human complement component C5 (human, UniProt P01031 19-673; P01031 678-1676).
T3 construct: mature; The native protein has two disulfide-linked chains (alpha and beta) made from one precursor; also called human native C5
Put plainly: SPR (Biacore T200), antibody on CM5 chip, antigen 0-10 nM; SPR (Biacore T200), Cab05-IgG4 on CM5 chip, C5 at 0-10 nM: no signal, given only as a lower bound on Kd. As to the method:
(§1) The affinities for eC5a and c5 at various concentrations were measured. […] The concentrations of 0.625 and 0 nM were repeated once. Using the SPR technology, the association and dissociation rates were measured, and binding affinity was determined.

Assay [5] deals with T4, human endogenous C5a (human, UniProt P01031 678-751, limits assumed).
T4 construct: Endogenous human C5a; also called eC5a
T4 sequence: T1 sequence
The experiment in a line: SPR (Biacore T200), antibody on CM5 chip, antigen 0-10 nM. How it is done:
as §1
On the technique in general: Surface plasmon resonance follows binding to a sensor surface in real time, without labels.

The target of assay [6] is T3, native full-length human complement …. The experiment in a line: ELISA, plate coated with human native C5, full-length antibody titrated, OD410. On the technique in general: ELISA stands for enzyme-linked immunosorbent assay.
For assay [7], the target named is T5, C5a-T33A.
T5 single chain: T1 sequence with T33A
Put plainly: ELISA on the coated C5a protein, antibody titrated, OD410.

Assay [8] concerns the target T6, C5a-Q36A.
T6 single chain: T1 sequence with Q36A
Described as above.

For assay [9], the target named is T7, C5a-R40A.
T7 single chain: T1 sequence with R40A
Described as above.

Assay [10] addresses T3, native full-length human complement …. Put plainly: SPR (Biacore T200), antibody on CM5 chip, antigen 0-10 nM. As to the method: as §1
In assay [11] the target is T8, C5a-E32A.
T8 single chain: T1 sequence with E32A
The experiment in a line: ELISA on the coated C5a protein, antibody titrated, OD410.

Assay [12] deals with T5, C5a-T33A. The assay is described as above.
Assay [13] has as its target T6, C5a-Q36A. The description is as above.
Assay [14] deals with T7, C5a-R40A. The assay is described as above.

Substitutions are numbered along the chain they refer to. Like-named read-outs stand apart in the source and are kept apart here.

T3 sequence (P01031 19-673 limits assumed, one chain of several): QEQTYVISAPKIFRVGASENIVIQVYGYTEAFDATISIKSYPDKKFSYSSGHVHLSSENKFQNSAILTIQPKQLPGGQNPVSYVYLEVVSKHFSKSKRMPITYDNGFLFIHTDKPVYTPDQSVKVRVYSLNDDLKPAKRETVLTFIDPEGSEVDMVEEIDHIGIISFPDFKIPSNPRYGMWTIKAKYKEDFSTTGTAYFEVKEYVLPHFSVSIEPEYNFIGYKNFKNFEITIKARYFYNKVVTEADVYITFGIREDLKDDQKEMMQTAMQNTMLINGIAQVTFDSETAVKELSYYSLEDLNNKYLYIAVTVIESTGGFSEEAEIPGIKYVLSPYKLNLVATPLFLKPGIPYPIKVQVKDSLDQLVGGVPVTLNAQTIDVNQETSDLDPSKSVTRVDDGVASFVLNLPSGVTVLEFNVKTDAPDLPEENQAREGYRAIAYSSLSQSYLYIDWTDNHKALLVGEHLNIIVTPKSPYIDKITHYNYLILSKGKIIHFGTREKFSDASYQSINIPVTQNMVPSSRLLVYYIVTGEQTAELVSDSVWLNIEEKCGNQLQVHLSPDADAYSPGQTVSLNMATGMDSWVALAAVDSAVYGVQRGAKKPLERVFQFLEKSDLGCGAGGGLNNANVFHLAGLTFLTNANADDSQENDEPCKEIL

B1: Cab03 scFv (scFv, V domains shown)
VH: EVQLVESGGGLVQPGGSLKVSCAASGFIFSDYYMQWVRQAPGKGPEWVGLIRKKVNGGTTEYAASVKGRFTISRDDSKSIVYLQMSSLKIEDTAVYYCVSRAGPPGLTWGQGVLVTVSS
VL: DIVLTQTPLSLAVSPGEPASISCRSSQSLLASDGYTYLDWYLQKPGQSPQILIYGGSNRASGVPDRFSGRGSGTDFTLKITKVEAEDVGVYYCLQHRALPPTFGQGTKLEIK
In the case of B1, in [1], the “ROS IC50” value is 1.41 nM.

B2: Cab05 scFv (scFv, V domains shown)
VH: EMQLVESGGGLVQPGGSLRLSCAASGFTFSDYYMQWVRQAPGKGPEWVGLIRNKAVGGTTQYAASVKGRFTISRDDSKNSVYLQMNSLKTEDTAVYYCVSRAGPPGLSWGQGVLVTVSS
VL: DIVMTQSPLSLPVTPGEPASISCRSSQSLLASDGYNYIDWYLQKPGQSPQLLIYGGSNRASGVPDRFSGSGSGTDFTLKISRVEAEDVGVYFCLQHRALPPTFGQGTKLEIK
notes: scFv
For B2, the “ROS IC50” value in assay [1] and in [2] was 1.56 nM in each case. Further, the EC50 (read off the curve) (in general, the concentration giving half of the maximal effect) in assay [3] was about 0.03 mg/L.

B3: Cab05-IgG4 (antibody, V domains shown)
VH: B2 VH
VL: B2 VL
notes: Full-length human IgG4 with a human kappa or lambda light chain constant domain
B3: the Kd (as a rule, the equilibrium constant for the complex coming apart) in [4] is over 100 nM. In addition, in assay [5], the affinity, expressed as Kd, was 0.105 nM; the koff (commonly the first-order rate constant of dissociation) turned out to be 4.22e-05 s⁻¹; the kon (in general, a measure of how fast the partners come together) was 402000 M⁻¹ s⁻¹. Also, in assay [6], the “EC50 (read off the curve)” value is about 0.03 mg/L.

B4: Cab35-IgG1 (antibody, V domains shown)
VH: B2 VH with G58E
VL: B2 VL
With B4, the “ROS IC50” value in [2] came to 1.28 nM.

B5: Cab38 (reformatted as human IgG1) (antibody, V domains shown)
VH: B2 VH with G58H
VL: B2 VL
On to B5, for which the “ROS IC50” value in assay [2] was determined as 0.53 nM.

B6: Cab45-IgG1 (antibody, V domains shown)
VH: B2 VH with M2V, M34I, Q61T, V81A, Y97F
VL: B2 VL with S28N, S32T, N36T, I38L, N58K, F92Y
notes: Full-length human IgG1
Take B6: the binding result in assay [7], in assay [8] and in assay [9] was “binds” each time. Besides, the “ROS IC50” value in assay [2] was 0.64 nM.

B7: INab308 (antibody, V domains shown)
VH: QVQLQQSGPQLVRPGTSVKISCKASGYSFTTFWMDWVKQRPGQGLEWIGRIDPSDSESRLDQRFKDRATLTVDKSSSTVYMQLSSPTSEDSAVYYCARGNDGYYGFAYWGQGTLVTVSS
VL: DIVLTQSPASLAVSLGQRATISCKASQSVDYDGDSYMKWYQQKPGQPPKLLIYAASNLQSGIPARFSGSGSGTDFTLNIHPVEEEDAATYYCQQSNEDPYTFGGGTKLEIK
Take B7: in assay [10], the Kd was determined as 0.743 nM, the koff stood at 0.000218 s⁻¹ and the kon is 293000 M⁻¹ s⁻¹.

B8: Cab15 scFv (scFv, V domains shown)
VH: VVQLVESGGGLVQPGGSLKVSCAASGFTFSDYYMQWVRQAPGKGPEWVGLIRNKAIGETTEYAASVKGRFTISRDDSKSIVYLQMSSLKPEDTAVYYCAGRLGPPGLSWGQGVLVTVSS
VL: DIVMTQNPLSLPVTPGEPASISCRSSQSLLATDGYTYLDWYLQKPGQSPQVLIYGGSKRASGVPDRFSGSGSGTDFTLKITKVEAEDVGIYYCMQHKALPPTFGQGTKLEIK
Regarding B8, the “ROS IC50” value in assay [1] was 0.64 nM.

B9: Cab43 (reformatted as human IgG1) (antibody, V domains shown)
VH: EVQLVESGGGLVQPGGSLRLSCAASGFTFSNYYIQWVRQAPGKGPEWVGLIRNKAIGETTEFAASVKGRFTISRDDSKNSVYLQMNSLKTEDTAVYYCAGRLGPPGLTWGQGVLVTVSS
VL: B2 VL with S28N, S32T, N36T, I38L, N58K, F92Y
Take B9: in assay [2], the “ROS IC50” value was found to be 0.62 nM.

B10: Cab44-IgG1 (antibody, V domains shown)
VH: B9 VH
VL: B2 VL with S32T, N36E, I38L, G56A, F92Y, R97K
notes: Full-length human IgG1
As for B10, in assay [2], the “ROS IC50” value came out at 0.51 nM. The binding result in assay [11], in [12], in assay [13] and in assay [14] was “binds” each time.

B11: Cab04 scFv (scFv, V domains shown)
VH: B2 VH with M2V, E6Q, R19K, L20V, V56I, N79S, S80I, N86S, L114V
VL: DIVMIQTPLSLPVTPGEPASISCRSSQRLLHTDGYTYLDWYLQKPGQSPQLLIYGGSNRASGVPDRFSGSGSGSDFTLKISKVEAEDVGVYYCLQHKALPLTFGGGTKLEIK
With B11, in [1], the “ROS IC50” value turned out to be 1.87 nM.
